This is an account of results in article PMC7763487 (2020).

To fix the notation:
B1: (Flag)3-TET1 full-length Δ1+2 (Δ109–120 + Δ1132–1202) [mouse] / (HA)3-NANOG [mouse] (parent complex)
chain 1: MSRSRPAKPSKSVKTKLQKKKDIQMKTKTSKQAVRHGASAKAVNPGKPKQLIKRRDGKKETEDKTPTPAPSFLTRAGAARMNRDRNQVLFQNPDSLTCNGFTMALRRTTPKPKKVPPSKKQCTHNIQDEPGVKHSENDSVPSQHATVSPGTENGEQNRCLVEGESQEITQSCPVFEERIEDTQSCISASGNLEAEISWPLEGTHCEELLSHQTSDNECTSPQECAPLPQRSTSEVTSQKNTSNQLADLSSQVESIKLSDPSPNPTGSDHNGFPDSSFRIVPELDLKTCMPLDESVYPTALIRFILAGSQPDVFDTKPQEKTLITTPEQVGSHPNQVLDATSVLGQAFSTLPLQWGFSGANLVQVEALGKGSDSPEDLGAITMLNQQETVAMDMDRNATPDLPIFLPKPPNTVATYSSPLLGPEPHSSTSCGLEVQGATPILTLDSGHTPQLPPNPESSSVPLVIAANGTRAEKQFGTSLFPAVPQGFTVAAENEVQHAPLDLTQGSQAAPSKLEGEISRVSITGSADVKATAMSMPVTQASTSSPPCNSTPPMVERRKRKACGVCEPCQQKANCGECTYCKNRKNSHQICKKRKCEVLKKKPEATSQAQVTKENKRPQREKKPKVLKTDFNNKPVNGPKSESMDCSRRGHGEEEQRLDLITHPLENVRKNAGGMTGIEVEKWAPNKKSHLAEGQVKGSCDANLTGVENPQPSEDDKQQTNPSPTFAQTIRNGMKNVHCLPTDTHLPLNKLNHEEFSKALGNNSSKLLTDPSNCKDAMSVTTSGGECDHLKGPRNTLLFQKPGLNCRSGAEPTIFNNHPNTHSAGSRPHPPEKVPNKEPKDGSPVQPSLLSLMKDRRLTLEQVVAIEALTQLSEAPSESSSPSKPEKDEEAHQKTASLLNSCKAILHSVRKDLQDPNVQGKGLHHDTVVFNGQNRTFKSPDSFATNQALIKSQGYPSSPTAEKKGAAGGRAPFDGFENSHPLPIESHNLENCSQVLSCDQNLSSHDPSCQDAPYSQIEEDVAAQLTQLASTINHINAEVRNAESTPESLVAKNTKQKHSQEKRMVHQKPPSSTQTKPSVPSAKPKKAQKKARATPHANKRKKKPPARSSQENDQKKQEQLAKEKVKVEPSDSLPTCQFKTESGGQTFAEPADNSQGQPMVSVNQEAHPLPQSPPSNQCANIMAGAAQTQFHLGAQENLVHQIPPPTLPGTSPDTLLPDPASILRKGKVLHFDGITVVTEKREAQTSSNGPLGPTTDSAQSEFKESIMDLLSKPAKNLIAGLKEQEAAPCDCDGGTQKEKGPYYTHLGAGPSVAAVRELMETRFGQKGKAIRIEKIVFTGKEGKSSQGCPVAKWVIRRSGPEEKLICLVRERVDHHCSTAVIVVLILLWEGIPRLMADRLYKELTENLRSYSGHPTDRRCTLNKKRTCTCQGIDPKTCGASFSFGCSWSMYFNGCKFGRSENPRKFRLAPNYPLHNYYKRITGMSSEGSDVKTGWIIPDRKTLISREEKQLEKNLQELATVLAPLYKQMAPVAYQNQVEYEEVAGDCRLGNEEGRPFSGVTCCMDFCAHSHKDIHNMHNGSTVVCTLIRADGRDTNCPEDEQLHVLPLYRLADTDEFGSVEGMKAKIKSGAIQVNGPTRKRRLRFTEPVPRCGKRAKMKQNHNKSGSHNTKSFSSASSTSHLVKDESTDFCPLQASSAETSTCTYSKTASGGFAETSSILHCTMPSGAHSGANAAAGECTGTVQPAEVAAHPHQSLPTADSPVHAEPLTSPSEQLTSNQSNQQLPLLSNSQKLASCQVEDERHPEADEPQHPEDDNLPQLDEFWSDSEEIYADPSFGGVAIAPIHGSVLIECARKELHATTSLRSPKRGVPFRVSLVFYQHKSLNKPNHGFDINKIKCKCKKVTKKKPADRECPDVSPEANLSHQIPSRVASTLTRDNVVTVSPYSLTHVAGPYNRWV
chain 2: MSVGLPGPHSLPSSEEASNSGNASSMPAVFHPENYSCLQGSATEMLCTEAASPRPSSEDLPLQGSPDSSTSPKQKLSSPEADKGPEEEENKVLARKQKMRTVFSQAQLCALKDRFQKQKYLSLQQMQELSSILNLSYKQVKTWFQNQRMKCKRWQKNQWLKTSNGLIQKGSAPVEYPSIHCSYPQGYLVNASGSLSMWGSQTWTNPTWSSQTWTNPTWNNQTWTNPTWSSQAWTAQSWNGQPWNAAPLHNFGEDFLQPYVQLQQNFSASDLEVNLEATRESHAHFSTPQALELFLNYSVTPPGEI

The variants in this experiment derive from B1. Description: co-immunoprecipitation (anti-Flag IP), quantified immunoblot; E14/T ESCs; parent: 0.29; read off a plot.
As for chain 1 F1440A, chain 1 F1442A, chain 1 W1446A, chain 1 Y1449A, chain 1 F1450A, chain 1 F1455A, chain 1 F1464A, the screen value was around 0.065.
